Four substances from patent US20030219899A1 can be followed below.

Holding throughout (experiment): cell-based or functional assay
The target in experiment [1] is human coxsackie-adenovirus receptor (hCAR) (human) (UniProt P78310).
The target in experiment [2] is Ad3 receptor.
Experiment [3] addresses hCAR-tailless, truncation mutant of human CAR lacking the cytoplasmic domain (human) (UniProt P78310).

The substance “recombinant Ad5 fiber knob protein with N-terminal 6xHis tag expressed in E. coli (from UniProt P11818 387-581)” came in with a luciferase activity of Ad5luc1 on HeLa cells with 100 µg/ml Ad5 knob, against that without knob protein (% of activity without knob protein) in experiment [1] of less than 5.
“recombinant Ad3 fiber knob protein with N-terminal 6xHis tag expressed in E. coli (from UniProt P04501 119-319)”: the luciferase activity of Ad5/3luc1 on HeLa cells with 100 µg/ml Ad3 knob, against that without knob protein (% of activity without knob protein) in experiment [2] is less than 5.
With “Ad5 wild-type fiber, as displayed on Ad5luc1 (from UniProt P11818 1-581)”, the Ad5luc1 luciferase activity (normalized to Ad5/3luc1) in U118-hCAR cells against parental U118 cells in experiment [1] stood at 11 fold. In addition, the Ad5luc1 luciferase activity (normalized to Ad5/3luc1) in U118-hCAR-tailless cells against parental U118 cells in experiment [3] was 16 fold.
With “mosaic adenovirus AdMSluc1 displaying both the Ad5 wild-type fiber and the Ad5/3 chimeric fiber on the same virion (from UniProt P11818 1-581; P11818 1-399; P04501 132-319)”, the luciferase gene transfer of AdMSluc1 to C33A cells in the presence of purified Ad3 knob in experiment [2] worked out at 100 µg/mL. In experiment [1], the AdMSluc1 luciferase activity (normalized to Ad5/3luc1) in U118-hCAR cells against parental U118 cells came to 6 fold and the luciferase gene transfer of AdMSluc1 to C33A cells in the presence of purified Ad5 knob; lowest knob concentration with significant block was found to be 0.1 µg/mL. Also, the AdMSluc1 luciferase activity (normalized to Ad5/3luc1) in U118-hCAR-tailless cells against parental U118 cells in experiment [3] turned out to be 7.5 fold.
